Experimental data: paper PMC5445279, “Proanthocyanidin accumulation and transcriptional responses in the seed coat of cranberry beans (Phaseolus vulgaris L.) with different susceptibility to postharvest darkening” (BMC Plant Biology, 2017)

Experiments:
PvANR1 = target: T1, PvANR1 (Phaseolus vulgaris, UniProt A0A1V0E4B3); assay: HPLC-DAD of epicatechin formation, substrate-inhibition fit; format: biochemical; conditions: substrate inhibition by cyanidin, product epicatechin; 800 μM NADPH, 50 mM HEPES pH 7.0, 30 °C; apparent
T1 construct: gene ANR1; full ORF (1014 bp PCR product) from seed coat cDNA, pET-30b, E. coli BL21; N-terminal His6 tag cut by enterokinase; forward primer encodes MATVKKIGK
Excerpt: (§1) HPLC-DAD of epicatechin formation, substrate-inhibition fit on PvANR1

[1] = substrate: Oc1cc(O)c2cc(O)c(-c3ccc(O)c(O)c3)[o+]c2c1; assay: as above; format: biochemical, Phaseolus vulgaris; conditions: product epicatechin, 800 μM NADPH, 50 mM HEPES pH 7.0, 30 °C, apparent, substrate inhibition model
Excerpt: as §1

[2] = substrate: NC(=O)C1=CN([C@@H]2O[C@H](COP(=O)(O)OP(=O)(O)OC[C@H]3O[C@@H](n4cnc5c(N)ncnc54)[C@H](OP(=O)(O)O)[C@@H]3O)[C@@H](O)[C@H]2O)C=CC1; assay: HPLC-DAD of epicatechin formation, Hill fit; format: biochemical, Phaseolus vulgaris; conditions: product epicatechin, 100 μM cyanidin, 50 mM HEPES pH 7.0, 30 °C, Hill coefficient 2.5, varied: cofactor
Excerpt: HPLC-DAD of epicatechin formation, Hill fit on PvANR1

With Oc1cc(O)c2cc(O)c(-c3ccc(O)c(O)c3)[o+]c2c1 [cyanidin] the “K i” value (PvANR1) was 631.5 ± 119.9 µM.

B1: PvANR1 (Phaseolus vulgaris) (protein)
chain: MATVKKIGKKACVIGGSGFMASCLVKQLLHKGYAVNTTVRDPDNAKKISHLLALQSLGDLNIFGADLTGERDFDAPIAGCELVFQLATPVNFASEDPENDMIKPAISGVLNVLKACARAKGVKRVILTSSAAAVTINPVKDTGLVMDESNWTDVEFLNTAKPPTWGYPVSKALAEKAAWKFAEENHIDLITVIPTLTTGPSLTPDIPSSVGLATSLITGNDFLINALKGMQFLSGSISITHVEDICRAHIFVAENESASGRYIVSSHSTSVPELAKFLSKRYPQYKVPTEFDDCPSKAKLTISSEKLVKEGFSFKYGIEEIYDQSVEYLKSKGALKN
notes: full ORF (1014 bp PCR product) from seed coat cDNA, pET-30b, E. coli BL21; N-terminal His6 tag cut by enterokinase; forward primer encodes MATVKKIGK
Molecule B1 has a K0.5 [1] of 114.2 ± 19.0 µM, a Vmax [1] of 0.0116 µmol/min/mg and a kcat [1] of 0.0072 ± 0.0007 s⁻¹. It also gave a kcat/Km [1] of 65.4 ± 13.8 M⁻¹ s⁻¹, a K0.5 [2] of 103.5 ± 7.4 µM and a Vmax [2] of 0.00334 µmol/min/mg. The kcat [2] was 0.0021 ± 0.0001 s⁻¹ and the kcat/Km [2] was 20.1 ± 0.49 M⁻¹ s⁻¹.
